Changes are numbered by the printed parent chain. Numbers in names are those of the source.
B1: zebrafish PIP5K1A kinase catalytic domain (residues 49-431), wild type (domain or fragment)
chain: MASTGETTYKKTTSSALKGAIQLGITHSVGSLSQKPERDVLMQDFEVVESIFFPSQGSSSTPGHHHGDFKFKTYAPIAFRYFREMFGIRPDDYLYSLCNEPLIELSNPGASGSLFYVSSDDEFIIKTVQHKEAEFLQTLLPGYFMNLNQNMRTLLPKFYGLYCVQADGKNIRIVVMNNLLPRAVPMHLKFDLKGSTYKRRASPKERSKGVPTYKDLDFMQDMPEGILLENDHYTALSRTMQRDCRVLQSFKIMDYSLLVGIHILHRAGEEASTAVPDTQKKGQGQKPLYCTAIESIQGESKSKTSPQPYESMGGIPAFNSKGERLLVFIGIIDILQSYRLVKKLEHSWKALLHDGDTVSVHRPSFYADRFQKFMCSTVFRKSQLKTLE
notes: kinase catalytic domain of zebrafish PIP5K1Aα, residues 49-431; C-terminal 'Leu-Glu' that precedes the His6 tag; Dimer by SEC/MALLS and in the crystal; also called zPIP5K1A; PIP5K1A kinase domain; not shown: His6, C-terminal, kept
B2: zebrafish PIP5K1A kinase catalytic domain, triple D84R/L86A/V291A (DLV) mutant (domain or fragment)
chain: B1 chain with D39R, L41A, V246A
B3: zebrafish PIP5K1A kinase catalytic domain, S78A mutant (domain or fragment)
chain: B1 chain with S33A
notes: kinase catalytic domain of zebrafish PIP5K1Aα, residues 49-431; C-terminal 'Leu-Glu' that precedes the His6 tag; source: E. coli BL21-CodonPlus(DE3)-RIL, purified in the same way as the wild-type protein; not shown: His6, C-terminal, kept
B4: zebrafish PIP5K1A kinase catalytic domain, Y140A mutant (domain or fragment)
chain: B1 chain with Y95A
notes: kinase catalytic domain of zebrafish PIP5K1Aα, residues 49-431; the residue is printed 'Try-140' in the results and Y140A later; C-terminal 'Leu-Glu' that precedes the His6 tag; also called Try-140 to Ala; source: E. coli BL21-CodonPlus(DE3)-RIL, purified in the same way as the wild-type protein; not shown: His6, C-terminal, kept
B5: zebrafish PIP5K1A kinase catalytic domain, Q194A mutant (domain or fragment)
chain: B1 chain with Q149A
notes: kinase catalytic domain of zebrafish PIP5K1Aα, residues 49-431; C-terminal 'Leu-Glu' that precedes the His6 tag; also called Q194 mutant; source: E. coli BL21-CodonPlus(DE3)-RIL, purified in the same way as the wild-type protein; not shown: His6, C-terminal, kept
B6: zebrafish PIP5K1A kinase catalytic domain, F131A mutant (domain or fragment)
chain: B1 chain with F86A
notes: as for B3
B7: GST-tagged DIX domain of mouse DVL1 (residues 1-106) with Y17D (domain or fragment, UniProt P51141 1-106, looked up)
chain: MAETKIIYHMDEEETPDLVKLPVAPERVTLADFKNVLSNRPVHAYKFFFKSMDQDFGVVKEEIFDDNAKLPCFNGRVVSWLVLAEGAHSDAGSQGTDSHTDLPPPL
notes: DIX domain of mouse DVL1, residues 1-106, Y17D to eliminate DIX aggregation; A longer construct 1-200 (DIX-L) is named in the methods but tied to no experiment; also called DVL DIX; GST-DVL; source: E. coli, purified (glutathione-agarose beads, size-exclusion chromatography)
B8: zebrafish PIP5K1A kinase catalytic domain, K426A mutant (domain or fragment)
chain: B1 chain with K381A
notes: as for B3
B9: zebrafish PIP5K1A kinase catalytic domain, L150A mutant (domain or fragment)
chain: B1 chain with L105A
notes: kinase catalytic domain of zebrafish PIP5K1Aα, residues 49-431; C-terminal 'Leu-Glu' that precedes the His6 tag; also called Leu-150 to Ala; source: E. coli BL21-CodonPlus(DE3)-RIL, purified in the same way as the wild-type protein; not shown: His6, C-terminal, kept
B10: zebrafish PIP5K1A kinase catalytic domain, D276A mutant (domain or fragment)
chain: B1 chain with D231A
notes: as for B3
B11: zebrafish PIP5K1A kinase catalytic domain, E167A mutant (domain or fragment)
chain: B1 chain with E122A
notes: as for B3
B12: zebrafish PIP5K1A kinase catalytic domain, Y126A mutant (domain or fragment)
chain: B1 chain with Y81A
notes: as for B3
B13: zebrafish PIP5K1A kinase catalytic domain, E149A mutant (domain or fragment)
chain: B1 chain with E104A
notes: as for B3
B14: zebrafish PIP5K1A kinase catalytic domain, E82A mutant (domain or fragment)
chain: B1 chain with E37A
notes: as for B3

Legend:
[1] = target: B7; assay: cell-based or functional assay
[2] = target: the molecule itself; assay: SEC-MALS; Superdex S-200 10/30 HR; 10 mM HEPES (pH 7.3), 300 mM NaCl, 5% glycerol, 0.01% TX-100; 0.5 ml/min
Dix109 = target: T1, Dix109; assay: ITC; details: chain shown with the change;
T1 chain: B7 chain

[3] = target: B7; assay: pull-down; GST-DIX (or GST) 0.5 μg and His-tagged PIP5K1 0.5 μg in 200 μl of 10 mM HEPES (pH 7.4), 150 mM NaCl, 0.2% Triton, 0.01% SDS, 3 mM dithiothreitol, 10% glycerol; 4 °C overnight; glutathione beads; western blotting; details: both partners purified
[4] = target: B2; assay: as above; details: both partners purified
[5] = target: B1; assay: as above; details: both partners purified
[6] = target: T2, zebrafish PIP5K1A kinase catalytic domain (residues 49-431), wild type (zebrafish, UniProt Q503I3 49-431); assay: ITC
T2 chain: B1 chain

Binder: B1
- fold activation of the lipid kinase activity by DIX [1]: 3 fold
- stoichiometry N [2]: 2

Binder: B2
- Kd (Dix109; parent: 1.2 µM): 800 nM
- other: N (Dix109; parent: 1.01 ± 0.09): 0.98
- other: -TΔS (Dix109; parent: 120 ± 16 KJ mol-1): 53.8 kcal/mol
- dG (Dix109; parent: -31.0 ± 3.5 KJ mol-1): -8.32 kcal/mol
- other: ΔH (Dix109; parent: -151 ± 19 KJ mol-1): -62.1 kcal/mol
- fold activation of the lipid kinase activity by DIX [1]: > 30 fold

Binder: B3
- reduction of the interaction against the wild type [3]: > 70%

Binder: B4
- change in the interaction against the wild type [3]: ≤ 20%

Binder: B5
- change in the interaction against the wild type [3]: ≤ 20%

Binder: B6
- change in the interaction against the wild type [3]: ≤ 20%

Binder: B7
- binding result [4]: binds
- binding result [5]: binds
- Kd [6]: 1200 nM

Binder: B8
- change in the interaction against the wild type [3]: ≤ 20%

Binder: B9
- change in the interaction against the wild type [3]: ≤ 20%

Binder: B10
- reduction of the interaction against the wild type [3]: > 70%

Binder: B11
- change in the interaction against the wild type [3]: ≤ 20%

Binder: B12
- reduction of the interaction against the wild type [3]: > 70%

Binder: B13
- change in the interaction against the wild type [3]: ≤ 20%

Binder: B14
- change in the interaction against the wild type [3]: ≤ 20%

Source: publication PMC4570271, “Resolution of structure of PIP5K1A reveals molecular mechanism for its regulation by dimerization and dishevelled” (Nature Communications, 2015)
